Tested on: Escherichia coli TOP10
Experiment: shrunken log2 fold change of peptide-encoding DNA abundance (4.5 h post-induction vs induction); higher = less antimicrobial activity (less host growth inhibition)
Conditions: time post-induction: 4.5 h; library: site-saturation at positions 5, 18, 19, 20
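Also: peptides expressed intracellularly from a pBAD plasmid library in pooled LB shake-flask culture, induced with 0.3% L-arabinose, DNA abundance read by NGS, three biological replicates, DESeq2 with apeglm shrinkage.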

With RRIRYRPPRLPRPRPRPKPRPRP the “shrunken log2 fold change” value was 0.515.
In the case of RRIRPRPPRLPRPRPRPVWDPRP, the “shrunken log2 fold change” value is reported as 0.212.
In the case of RRIRRRPPRLPRPRPRPHHSPRP, the “shrunken log2 fold change” value is reported as -0.57.
For RRIRIRPPRLPRPRPRPCQVPRP, the “shrunken log2 fold change” value was -0.0176.
For RRIRWRPPRLPRPRPRPNVDPRP, the “shrunken log2 fold change” value was -0.0535.
For RRIRNRPPRLPRPRPRPRRGPRP, the “shrunken log2 fold change” value was 0.78.
RRIRCRPPRLPRPRPRPYCPPRP was tested, and the “shrunken log2 fold change” value was -0.968.
In the case of RRIRIRPPRLPRPRPRPNYAPRP, the “shrunken log2 fold change” value is reported as -0.381.
RRIRLRPPRLPRPRPRPESRPRP was tested, and the “shrunken log2 fold change” value was 0.0418.
With RRIRARPPRLPRPRPRPQWSPRP the “shrunken log2 fold change” value was 0.245.
In the case of RRIRPRPPRLPRPRPRPNEVPRP, the “shrunken log2 fold change” value is reported as 0.292.
For RRIRPRPPRLPRPRPRPAEFPRP, the “shrunken log2 fold change” value was -0.0142.
In the case of RRIRNRPPRLPRPRPRPMMRPRP, the “shrunken log2 fold change” value is reported as 0.0611.
For RRIRQRPPRLPRPRPRPFPIPRP, the “shrunken log2 fold change” value was -0.0231.
With RRIRNRPPRLPRPRPRPRLMPRP the “shrunken log2 fold change” value was -0.142.
RRIRMRPPRLPRPRPRPQMCPRP was tested, and the “shrunken log2 fold change” value was -0.239.
With RRIRLRPPRLPRPRPRPVMIPRP the “shrunken log2 fold change” value was -0.269.
RRIRSRPPRLPRPRPRPVDFPRP was tested, and the “shrunken log2 fold change” value was -0.0272.
In the case of RRIRRRPPRLPRPRPRPLWHPRP, the “shrunken log2 fold change” value is reported as 1.15.
RRIRRRPPRLPRPRPRPETWPRP was tested, and the “shrunken log2 fold change” value was 0.234.
For RRIRKRPPRLPRPRPRPVGHPRP, the “shrunken log2 fold change” value was 0.224.
With RRIRGRPPRLPRPRPRPLERPRP the “shrunken log2 fold change” value was 0.577.
RRIRIRPPRLPRPRPRPRTNPRP was tested, and the “shrunken log2 fold change” value was -0.159.
In the case of RRIRMRPPRLPRPRPRPPHKPRP, the “shrunken log2 fold change” value is reported as 0.585.
With RRIRARPPRLPRPRPRPCYAPRP the “shrunken log2 fold change” value was -0.26.
In the case of RRIRLRPPRLPRPRPRPWPHPRP, the “shrunken log2 fold change” value is reported as 0.0514.
RRIRARPPRLPRPRPRPALDPRP was tested, and the “shrunken log2 fold change” value was 0.756.
RRIRNRPPRLPRPRPRPWKDPRP was tested, and the “shrunken log2 fold change” value was -0.00136.
In the case of RRIRGRPPRLPRPRPRPKFVPRP, the “shrunken log2 fold change” value is reported as 0.458.
With RRIRDRPPRLPRPRPRPGHLPRP the “shrunken log2 fold change” value was -0.000122.
For RRIRKRPPRLPRPRPRPHEYPRP, the “shrunken log2 fold change” value was -0.091.
For RRIRNRPPRLPRPRPRPIFWPRP, the “shrunken log2 fold change” value was -0.162.
With RRIRNRPPRLPRPRPRPMDVPRP the “shrunken log2 fold change” value was 0.0039.
For RRIRVRPPRLPRPRPRPLHLPRP, the “shrunken log2 fold change” value was -0.133.
With RRIRGRPPRLPRPRPRPCVAPRP the “shrunken log2 fold change” value was 1.1.
RRIRLRPPRLPRPRPRPTGKPRP was tested, and the “shrunken log2 fold change” value was -0.202.
For RRIRWRPPRLPRPRPRPNCYPRP, the “shrunken log2 fold change” value was -0.0773.
For RRIRKRPPRLPRPRPRPACIPRP, the “shrunken log2 fold change” value was 0.031.
With RRIRRRPPRLPRPRPRPPYRPRP the “shrunken log2 fold change” value was 0.113.
In the case of RRIRFRPPRLPRPRPRPLLSPRP, the “shrunken log2 fold change” value is reported as 0.0127.
For RRIRERPPRLPRPRPRPTEDPRP, the “shrunken log2 fold change” value was -0.317.
With RRIRARPPRLPRPRPRPFYCPRP the “shrunken log2 fold change” value was -0.402.
For RRIRVRPPRLPRPRPRPQWSPRP, the “shrunken log2 fold change” value was -0.201.
For RRIRERPPRLPRPRPRPKPAPRP, the “shrunken log2 fold change” value was 0.666.
In the case of RRIRARPPRLPRPRPRPYCIPRP, the “shrunken log2 fold change” value is reported as -0.151.
In the case of RRIRSRPPRLPRPRPRPCGNPRP, the “shrunken log2 fold change” value is reported as 0.1.
With RRIRKRPPRLPRPRPRPTNCPRP the “shrunken log2 fold change” value was 0.0303.
For RRIRNRPPRLPRPRPRPLSYPRP, the “shrunken log2 fold change” value was -0.319.
With RRIRIRPPRLPRPRPRPRQLPRP the “shrunken log2 fold change” value was -0.27.
In the case of RRIRMRPPRLPRPRPRPMRVPRP, the “shrunken log2 fold change” value is reported as 0.035.
For RRIRGRPPRLPRPRPRPSFNPRP, the “shrunken log2 fold change” value was 0.131.
For RRIRQRPPRLPRPRPRPRGQPRP, the “shrunken log2 fold change” value was 0.726.
For RRIRLRPPRLPRPRPRPVNIPRP, the “shrunken log2 fold change” value was -0.163.
For RRIRGRPPRLPRPRPRPLAPPRP, the “shrunken log2 fold change” value was 0.998.
RRIRVRPPRLPRPRPRPISWPRP was tested, and the “shrunken log2 fold change” value was 0.18.
In the case of RRIRSRPPRLPRPRPRPFKPPRP, the “shrunken log2 fold change” value is reported as -0.297.
RRIRVRPPRLPRPRPRPKKNPRP was tested, and the “shrunken log2 fold change” value was 0.28.
With RRIRNRPPRLPRPRPRPNNNPRP the “shrunken log2 fold change” value was -0.867.
For RRIRNRPPRLPRPRPRPCAQPRP, the “shrunken log2 fold change” value was 0.127.
For RRIRARPPRLPRPRPRPSCWPRP, the “shrunken log2 fold change” value was 0.628.
With RRIRRRPPRLPRPRPRPNESPRP the “shrunken log2 fold change” value was 0.137.
For RRIRIRPPRLPRPRPRPEETPRP, the “shrunken log2 fold change” value was -0.00208.
In the case of RRIRIRPPRLPRPRPRPPRWPRP, the “shrunken log2 fold change” value is reported as 0.514.
For RRIRCRPPRLPRPRPRPIKPPRP, the “shrunken log2 fold change” value was -0.259.
RRIRTRPPRLPRPRPRPILYPRP was tested, and the “shrunken log2 fold change” value was -0.275.
RRIRWRPPRLPRPRPRPFYIPRP was tested, and the “shrunken log2 fold change” value was -0.632.
In the case of RRIRIRPPRLPRPRPRPKNVPRP, the “shrunken log2 fold change” value is reported as -0.139.
RRIRIRPPRLPRPRPRPDIEPRP was tested, and the “shrunken log2 fold change” value was -0.185.
For RRIRPRPPRLPRPRPRPILYPRP, the “shrunken log2 fold change” value was -0.299.
In the case of RRIRGRPPRLPRPRPRPDVRPRP, the “shrunken log2 fold change” value is reported as 0.0237.
With RRIRARPPRLPRPRPRPADQPRP the “shrunken log2 fold change” value was 0.755.
With RRIRLRPPRLPRPRPRPCEPPRP the “shrunken log2 fold change” value was 0.023.
In the case of RRIRERPPRLPRPRPRPSLSPRP, the “shrunken log2 fold change” value is reported as -0.573.
In the case of RRIRFRPPRLPRPRPRPDCRPRP, the “shrunken log2 fold change” value is reported as -0.309.
For RRIRRRPPRLPRPRPRPHVKPRP, the “shrunken log2 fold change” value was -0.32.
In the case of RRIRARPPRLPRPRPRPYGNPRP, the “shrunken log2 fold change” value is reported as -0.0109.
With RRIRPRPPRLPRPRPRPMNDPRP the “shrunken log2 fold change” value was -0.329.
With RRIRCRPPRLPRPRPRPPMWPRP the “shrunken log2 fold change” value was 0.557.
For RRIRSRPPRLPRPRPRPYMSPRP, the “shrunken log2 fold change” value was -0.355.
With RRIRNRPPRLPRPRPRPMHGPRP the “shrunken log2 fold change” value was -0.0225.
RRIRNRPPRLPRPRPRPIFYPRP was tested, and the “shrunken log2 fold change” value was 0.00954.
With RRIRHRPPRLPRPRPRPFIVPRP the “shrunken log2 fold change” value was -0.319.
With RRIRRRPPRLPRPRPRPDGQPRP the “shrunken log2 fold change” value was 0.298.
With RRIRIRPPRLPRPRPRPHVSPRP the “shrunken log2 fold change” value was -0.0557.
RRIRTRPPRLPRPRPRPLILPRP was tested, and the “shrunken log2 fold change” value was -0.839.
In the case of RRIRTRPPRLPRPRPRPRGGPRP, the “shrunken log2 fold change” value is reported as 0.334.
For RRIRGRPPRLPRPRPRPYPLPRP, the “shrunken log2 fold change” value was -0.236.
For RRIRFRPPRLPRPRPRPSGPPRP, the “shrunken log2 fold change” value was 0.21.
With RRIRMRPPRLPRPRPRPRLLPRP the “shrunken log2 fold change” value was 0.421.
With RRIRSRPPRLPRPRPRPNAYPRP the “shrunken log2 fold change” value was -0.696.
For RRIRWRPPRLPRPRPRPLETPRP, the “shrunken log2 fold change” value was -0.0608.
For RRIRPRPPRLPRPRPRPHGGPRP, the “shrunken log2 fold change” value was 0.216.
With RRIRARPPRLPRPRPRPNSRPRP the “shrunken log2 fold change” value was 0.0429.
With RRIRFRPPRLPRPRPRPGGNPRP the “shrunken log2 fold change” value was 0.149.
RRIRYRPPRLPRPRPRPRITPRP was tested, and the “shrunken log2 fold change” value was -0.382.
For RRIRFRPPRLPRPRPRPPGGPRP, the “shrunken log2 fold change” value was 0.782.
RRIRYRPPRLPRPRPRPMYNPRP was tested, and the “shrunken log2 fold change” value was -1.23.
In the case of RRIRNRPPRLPRPRPRPPMIPRP, the “shrunken log2 fold change” value is reported as 0.102.
In the case of RRIRGRPPRLPRPRPRPSSIPRP, the “shrunken log2 fold change” value is reported as 0.0764.
For RRIRVRPPRLPRPRPRPWSDPRP, the “shrunken log2 fold change” value was -0.138.
RRIRVRPPRLPRPRPRPNRRPRP was tested, and the “shrunken log2 fold change” value was -0.0977.
RRIRNRPPRLPRPRPRPDCYPRP was tested, and the “shrunken log2 fold change” value was -0.871.
With RRIRVRPPRLPRPRPRPNVEPRP the “shrunken log2 fold change” value was -0.0461.
RRIRNRPPRLPRPRPRPKKPPRP was tested, and the “shrunken log2 fold change” value was -0.0506.
RRIRFRPPRLPRPRPRPDMMPRP was tested, and the “shrunken log2 fold change” value was -0.0389.
RRIRSRPPRLPRPRPRPIGIPRP was tested, and the “shrunken log2 fold change” value was -0.67.
In the case of RRIRARPPRLPRPRPRPQQCPRP, the “shrunken log2 fold change” value is reported as 0.132.
For RRIRQRPPRLPRPRPRPNHIPRP, the “shrunken log2 fold change” value was -0.526.
RRIRQRPPRLPRPRPRPDYDPRP was tested, and the “shrunken log2 fold change” value was 0.003.
With RRIRTRPPRLPRPRPRPSDQPRP the “shrunken log2 fold change” value was -0.183.
With RRIRLRPPRLPRPRPRPDNKPRP the “shrunken log2 fold change” value was -0.357.
For RRIRNRPPRLPRPRPRPTIAPRP, the “shrunken log2 fold change” value was -0.277.
For RRIRDRPPRLPRPRPRPKSYPRP, the “shrunken log2 fold change” value was 0.0134.
With RRIRERPPRLPRPRPRPTSHPRP the “shrunken log2 fold change” value was -0.239.
For RRIRHRPPRLPRPRPRPETEPRP, the “shrunken log2 fold change” value was 0.105.
In the case of RRIRPRPPRLPRPRPRPCGYPRP, the “shrunken log2 fold change” value is reported as -0.136.
RRIRHRPPRLPRPRPRPEFLPRP was tested, and the “shrunken log2 fold change” value was -0.0472.
RRIRDRPPRLPRPRPRPQAIPRP was tested, and the “shrunken log2 fold change” value was 0.0512.
RRIRQRPPRLPRPRPRPEFPPRP was tested, and the “shrunken log2 fold change” value was -0.0498.
With RRIRCRPPRLPRPRPRPSEGPRP the “shrunken log2 fold change” value was 0.141.
RRIRGRPPRLPRPRPRPAWQPRP was tested, and the “shrunken log2 fold change” value was 0.395.
For RRIRYRPPRLPRPRPRPSWPPRP, the “shrunken log2 fold change” value was -0.613.
In the case of RRIRQRPPRLPRPRPRPAVLPRP, the “shrunken log2 fold change” value is reported as 0.0386.
In the case of RRIRTRPPRLPRPRPRPHEYPRP, the “shrunken log2 fold change” value is reported as -0.17.
For RRIRARPPRLPRPRPRPPEPPRP, the “shrunken log2 fold change” value was 0.686.

— the supplement of paper PMC9112550, “Optimization of the antimicrobial peptide Bac7 by deep mutational scanning” (BMC Biology, 2022)
